Results on one molecule are retold here after US20160039933A1 (OXFORD BIOTHERAPEUTICS, published 2016).

Test [1] deals with T1, Cadherin-17 protein (92 kDa) in lysates of colorectal cancer cell lines (human, UniProt Q12864 23-832).
T1 construct: Same natural protein as m15, here denatured on a Western blot (band at 92 kDa); also called CDH17
T1 sequence (looked up): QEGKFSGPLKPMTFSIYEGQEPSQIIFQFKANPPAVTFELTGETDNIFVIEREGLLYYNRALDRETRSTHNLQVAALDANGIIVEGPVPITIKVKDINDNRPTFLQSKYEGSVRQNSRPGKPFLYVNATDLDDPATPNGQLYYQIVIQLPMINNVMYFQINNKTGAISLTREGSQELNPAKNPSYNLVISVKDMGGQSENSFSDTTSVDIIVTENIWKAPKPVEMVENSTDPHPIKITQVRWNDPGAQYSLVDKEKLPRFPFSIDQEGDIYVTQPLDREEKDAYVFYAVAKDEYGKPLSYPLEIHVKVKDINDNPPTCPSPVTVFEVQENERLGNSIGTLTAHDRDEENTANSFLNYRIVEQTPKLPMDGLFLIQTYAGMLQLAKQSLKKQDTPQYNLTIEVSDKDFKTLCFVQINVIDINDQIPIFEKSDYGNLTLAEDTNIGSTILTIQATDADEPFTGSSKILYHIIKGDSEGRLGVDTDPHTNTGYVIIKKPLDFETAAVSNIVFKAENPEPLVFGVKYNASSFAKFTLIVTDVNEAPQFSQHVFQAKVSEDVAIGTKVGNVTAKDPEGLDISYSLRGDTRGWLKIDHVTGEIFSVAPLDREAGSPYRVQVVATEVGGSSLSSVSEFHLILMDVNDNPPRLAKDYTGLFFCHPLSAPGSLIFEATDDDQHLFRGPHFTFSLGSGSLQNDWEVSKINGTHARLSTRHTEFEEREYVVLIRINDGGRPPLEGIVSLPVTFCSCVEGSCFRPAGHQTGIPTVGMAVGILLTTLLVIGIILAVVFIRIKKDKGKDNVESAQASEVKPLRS
Nature of the test: Western blot of colorectal cancer cell line lysates, antibody diluted 1:500. The method, then:
Snap frozen cell pellets were lysed in modified RIPA buffer (50 mM Tris-HCl, pH 7.4, 1% NP-40, 0.25% Na-deoxycholate, 150 mM NaCl, 1 mM EDTA) containing protease inhibitors (Roche) and cleared by spinning down at 18,000 g for 15 min at 4 C. The 4×LDS sample loading buffer (Invitrogen Inc.) was added to the cleared lysate to a final concentration of 1×; sample was heated for 10 min at 70° C. and kept at −80° C. afterwards. Before loading on a gel samples were re-heated.
Membrane was incubated with animal-free blocker (Vector) and probed with anti-Cadherin-17 antibody in animal-free blocker at 1:500 dilution, at 4 C, for 14-18 h, rotating. The secondary was anti-mouse DyLight® 488 conjugate (Pierce).
A clear signal was detected at a size corresponding to the Cadherin-17 protein (92 kDa) in 11 of the 14 chosen colorectal cell lines for all 5 Cadherin-17 antibodies (PTA001_A3, PTA001_A4, PTA001_A6, PTA001_A8 and PTA001_A9). […] Cell lines were carefully selected for different genetic backgrounds relevant to the initiation and progression of CRC (RER+=replication error positive tumor phenotype; RER−=replication error deficient tumor phenotype; p53 wild type or mutant and APC wild type or mutant genotype).
For orientation: In western blotting, separated proteins are transferred to a membrane and probed.

The target in test [2] is T2, cell-surface human Cadherin-17 (human, UniProt Q12864 23-832).
T2 construct: whole, on cells; Endogenous protein on cells; also called Liver-intestine cadherin; LI-cadherin
T2 sequence (looked up): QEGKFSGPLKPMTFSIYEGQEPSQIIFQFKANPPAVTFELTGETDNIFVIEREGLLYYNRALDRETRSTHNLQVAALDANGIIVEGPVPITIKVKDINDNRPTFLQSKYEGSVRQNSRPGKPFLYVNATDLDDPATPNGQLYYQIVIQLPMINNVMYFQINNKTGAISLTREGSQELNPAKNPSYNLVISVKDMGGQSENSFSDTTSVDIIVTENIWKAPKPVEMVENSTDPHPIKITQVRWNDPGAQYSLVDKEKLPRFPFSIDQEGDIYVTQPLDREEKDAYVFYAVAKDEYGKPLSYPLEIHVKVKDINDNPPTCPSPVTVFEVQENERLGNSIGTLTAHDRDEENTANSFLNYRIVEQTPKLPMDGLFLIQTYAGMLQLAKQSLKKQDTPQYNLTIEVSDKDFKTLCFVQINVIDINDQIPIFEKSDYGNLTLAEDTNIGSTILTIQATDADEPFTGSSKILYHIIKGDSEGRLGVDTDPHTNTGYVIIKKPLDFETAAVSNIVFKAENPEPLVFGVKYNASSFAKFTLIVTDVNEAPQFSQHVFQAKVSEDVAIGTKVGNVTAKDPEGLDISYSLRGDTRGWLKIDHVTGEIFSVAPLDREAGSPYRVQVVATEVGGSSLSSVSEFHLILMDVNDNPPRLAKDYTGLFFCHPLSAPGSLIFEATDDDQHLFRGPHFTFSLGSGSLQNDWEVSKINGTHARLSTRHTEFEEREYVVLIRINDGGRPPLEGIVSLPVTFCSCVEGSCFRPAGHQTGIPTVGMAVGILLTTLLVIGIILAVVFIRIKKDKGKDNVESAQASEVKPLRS
The experiment in a line: flow cytometry (FACS) on LoVo cells, antibody titration 0.005-10 ug/ml. (In flow cytometry, cells or beads pass a laser one at a time.)

B1: PTA001_A4 monoclonal antibody (Fab, V domains shown)
VH: EVQLQQSVAELVKPGASVKMSCKVSGYTLTDHTIHWMKQRPEQGLEWIGYIYPRDGITGYNEKFKGKATLTADTSSSTAYMQLNSLTSEDSAVYFCARWGYSYRNYAYYYDYWGQGTTLTVSS
VL: DIVMSQSPSSLAVSVGEKVTMSCKSSQSLLHSSNQKNYLAWYQQKPGQSPKVLIYWASTRESGVPDRFTGSGSGTDFTLTITSVKSEDLAVYYCQQYYSYPWTFGGGTRLEIKR
With B1, the binding result in test [1] and in test [2] was “binds” each time.
